Paper PMC8851480 (Proceedings of the National Academy of Sciences of the …, 2022)

How the values were obtained:
[1] = molecular target: N-terminal FLAG-tagged EBP50 (ERM-binding phosphoprotein 50) (human) (UniProt O14745); experiment: RNA immunoprecipitation
[2] = molecular target: ezrin, endogenous in HEK293T cells (human (endogenous in HEK293T), UniProt P15311 1-586); experiment: RNA immunoprecipitation
Chain of ezrin, endogenous in HEK293T cells (P15311 whole entry): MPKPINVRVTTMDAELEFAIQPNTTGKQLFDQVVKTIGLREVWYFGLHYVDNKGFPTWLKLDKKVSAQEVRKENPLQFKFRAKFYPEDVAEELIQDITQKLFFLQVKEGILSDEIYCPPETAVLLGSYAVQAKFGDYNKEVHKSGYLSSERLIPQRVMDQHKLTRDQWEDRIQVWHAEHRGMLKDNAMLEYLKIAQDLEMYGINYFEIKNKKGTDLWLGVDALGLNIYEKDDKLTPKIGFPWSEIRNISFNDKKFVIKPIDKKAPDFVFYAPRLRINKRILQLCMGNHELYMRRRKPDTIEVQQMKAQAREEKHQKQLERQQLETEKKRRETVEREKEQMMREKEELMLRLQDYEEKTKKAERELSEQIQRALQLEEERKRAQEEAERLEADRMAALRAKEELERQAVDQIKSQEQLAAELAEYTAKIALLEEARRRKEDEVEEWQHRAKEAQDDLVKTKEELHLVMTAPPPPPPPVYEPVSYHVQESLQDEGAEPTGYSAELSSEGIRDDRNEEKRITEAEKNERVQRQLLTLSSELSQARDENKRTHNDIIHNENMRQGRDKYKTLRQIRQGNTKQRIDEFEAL

fold enrichment of EZR mRNA over control IgG (RIP-qRT-PCR) [1] [fold] | fold reduction of the EBP50-EZR mRNA RIP signal against control peptide [2] [fold] | Molecule
100 |  | ezrin, endogenous in HEK293T cells (from UniProt P15311 1-586) (natural protein)
 | ~10 | RRRRRRRRRKERAHQKRSSKRAPQMDWSKKNELFSNL [Arg9-EBD peptide (28-amino-acid C terminus of the EBP50 EBD with an upstream 9-arginine sequence)]
